Test results reported in the DeepSol protein solubility set.

Experiment: soluble on expression in E. coli; label from the status in PepcDB or PDB records

Sequence	soluble on expression in E. coli
MNLSNLWQSCLLQLQDQVSASDLSTWLRPLQADVVADNHIVLYASNMFVKGWVETHYLAQIQQICQTLAQNPELRISLKEGVKPAPKIVESTPNTSLRSESAVDFQAESSASVKFESHLNTKHLFDNFVEGKSNQLARAVGQKLAQAPGEPSANPFFLYGGTGLGKTHLLHAIGNGILADKPNARVLYIHANNFMQHMVKAVRDNKMDQFKKFYRSLDALLVDDIQFFAEKEKTQEEFFHIFNSLFETGRQIILTSDRYPKEIEKIEERLKSRFGWGLTTAIEPPDLETRVAILLKKAEEHNMNLPEEVAFFIAQRLRTNVRELEGALNRVKAMQDFKGGDIDIDFVRDTLKDILALQERLVTIENIQKVVAEYYRIKVSDLKSKSRARSVTRPRQIAMALAKELTNRSLPEIGRAFDRDHTTVLNACREVPKFREQDNSIQEDWANLIRTLSALEHHHHHH	soluble
MGVLQATVLWAGPIPRVGNPPNWTSPSSSGLLFFYFFFTSTSDFTMEAPPAPKKARRSEVSRMQDESVLCDDDEEDSPFTLYFVDLPNEPTVKEIRNLEELFKTAKAVGIMPEWIDSDALEDLQKSEDFFVLPCFRGKLFRKLQARKLKVYGPPIVLESIEDGKQLPQWNHPVYSSVFQDVKISFTGLNLTKKQELYEKIGWMCGVVGDALYHETTHLVTEKAEQTEKYKAAVNNSIKLMRIGWIDDLWETSQTTMGRFSALSRDSVNSYALRVFEGLEMAITSIDGADRTNFIQLIEDHGGKVPGTMSKTRFFFSVFHYKICSFLGALLSIQMMLPEKAFYRKYHPKYLTADHIRSSTPKRDANVTESVPDISSIAGHGGRLGTSSFNSSIPQMDQSYQHQSGSSFISFASTSKIPSSTFTNNDSTLGRSGSGVRDGISTPIARVQTTPLIRYPTTQTASVQNIADVISDPIDELRKNIDDGLGDLFENCMFYICGVDESRMEKWRRFLNETGATRVAKFTSATNVVVVSPNQQERITIRKHLHQEDIAIVTVGWVVECVKQRKMISVEGYQWTENTADESQSSQSQLQPVRPQPLPRTSSKSTIPYGKTSGPSSTSTQVGIFSYHTYCVHCSVDQEVSDDLKEKIPLNGGKLMDDPDYAEFVIFGHSGPMHELISFDAVVTDFYIYASIGNNRFLNRSCYPLFVPLPRPPILIFNQRGFQLKCKDPFLRDRVRDIIEDNGGRIVEQLEPKDFIIMIDAEDNPPRYHSRTLDFSWIIASVSRCRLQPIDNFLYKNNTRPLSGFQRDDDLWEKCSREKNNSTQEMEVEVEDRHRVQDLPVETGNGNIGDMTTPYVNPYFPDLRKPYTMNLQLDGVSEYINNMESPARETQETLTTSRVGSILRKAVVNTGRNEDFEDEPSTCHLIRPRVPENRKTVSSTPVLVRDVNRSMRYMPMDESFADQNQEHEDLNRRYAMNPRFLLSVSNMDPQRAADLQETIMKLGGTIEREFNKDVTHLIASNMQRAPKVLCSIAAGKWCLTPDYVTKSAEVGRWLDEKSFEWTREKLLACSKKNESLKERDSRKVSENLAAVCGLWRQRVAEMPVTFSVSMENRQNGAFSDWRCVIHLDDKRAGVFSSILEAGGAIVHSISEYVEVSTLKPNIVLASKEFPWNPQSAVLLKRDNIPIYVFDILYDFLIDRDNLNRTKFWHNVYMKA	not soluble
MKHYLAIDIGGTAIKYGLISETGDLLEKEEMATEAYKGGPSILEKVKGLVKTYQDQMDLAGVAISSAGMVNPDEGEIFYAGPQIPNYAGTQFKKEIEETFGLPCEVENDVNCAGLAEAISGSAKDYPVALCLTIGTGIGGCLLFNSQVFHGSSHSACEVGYLHLSDGQFQDLASTTALVQEVVLAYGDDISQWDGRRIFEQAKAGDAICIAAISKQVDYLGQGIANICYVVNPNVVVLGGGIMAQKDYLADKLKTALDSYLVSSLAKKTQLKFASHGNNAGILGAYYHFKQKNERSCSFITLEKIENNLASS	not soluble
MSGSSHYPVANWNLDGIVSGLRGARQEWRGPRGRLREESESGVREFPSQESLRDIMRQLFGALFPMRLGPIDLREEVEDFYVGHTIGAALDALLHQVCLELQHLGRDDPQPYGQVLERAVDIVRRFGAELPAVRKALDLDVTAAYQGDPAARSVDEVLLCYPGVTAMIHHRLANVLYRLGAPMLARIVAEIAHSDTGIDIHPGATIGRSFFIDHGTGVVIGETAIIGERVRLYQMVTLGAKRFPPGENGELKKGLPRHPIIEDDVVIYAGATILGRITIGQGSTIGGNVWLTHSVPPNSTVTQAGAINDMPDCGLGGLEHHHHHH	not soluble
MMELHRRVLEGDEAALKTLVSAAPNIGEVARDVVEHLSPGSYREGGPCAVCGGRLESVIASAVEEGYRLLRAYDIERFVVGVRLERGVAMAEEEVKLAAGAGYGESIKAEIRREVGKLLVSRGGVTVDFDSPEATLMVEFPGGGVDIQVNSLLYKARYWKLARNISQAYWPTPEGPRYFSVEQALWPVLKLTGGERLVVHAAGREDVDARMLGSGRPMIVEVKSPRRRRIPLEELEAAANAGGKGLVRFRFETAAKRAEVALYKEETARVRKVYRALVAVEGGVSEVDVEGLRRALEGAVIMQRTPSRVLHRRPDILRRRRLYSLDCSPLEGAPLMECILEAEGGLYIKELVSGDGGRTRPSFAEVLGREAVCIELDVVWVEHEAPAAPGLEHHHHHH	soluble
MTFGRLWEKFLASAYYSDLSPRTQKDYLQHQKKLLAVFGKVPADSIKPEHIRRYMDKRGEQSKTQANHEKSSMSRVYSWGYERGYVKANPCAGVSKFKAKNRERYVTDKEYQAVLSVAPLPVFIAMEIAYLCAARVSDVLSLKWEQIGNDGIFIQQGKTGKKQIKAWSPRLQAAIEKAKQLPTSAYVISNQYGNRYMYKGFNEMWVEARNRAGKISGILTDFTFHDLKAKGISDYEGSSRDKQLFSGHKTEGQVLIYDRKVKVSPTLDVPLPENIPRKYSK	not soluble
MISHLFQTYGRRTVEFVKGNGTKVIDNNGKQYLDFTSGIGVCNLGHCHPTVMKAVQEQLNDIWHISNLFTNSLQEEVASLLTENIALDYVFFCNSGAEANEAALKLARKHTGKSLVVTCEQSFHGRTFGTMSATGQNKVKEGFGPLLPSFLHTPFNDIKALKEVMNEEVAAVMVEVVQGEGGVIPADLSFLKEIETLCKKFGSLFIIDEVQTGIGRTGTLFAYEQMGIDPHIVTTAKALGNGIPVGAMIGRKELGTSFTAGSHGSTFGGNYVAMAAAKEVLQVSKRLSFLKEVQEKGEYVLQKLQEELQHVECIQNIRGKGLMVGIECTHEVASFIEQLEKEGLLVLQAGPNVIRLLPPLIVTNEELEQAVYMIKKVVCTKNVSII	not soluble
MGSDKIHHHHHHMVMEYELRTPLVKDQILKLKVGDVVYITGEIFTARDEAHARALEWMEEGKELPFSFDKGVVYHCGPLVKKNDEWRVVSAGPTTSARMNPFTPKILEKVECMGIIGKGGMSEEVVEAMRGKAAYFAFTGGAGALAAMSIKKVKGVVWEDLGMPEAVWLLEVERFGPCIVAIDAHGNSLYRR	soluble
MHNKIVRIASSALTGGKLLEKLKPLTRWEVQWDPNKTKCLGITREVTFKDYETTWAFLTRVSMRSHLWGHHPLIHTSYTWVKLELHTHDIDPKDGAHSQLSDIDVRMAKRIDSYIDEMTT	not soluble
MIITIARQCGCGGHEVARILANKLGMELFDKKKLLEEANQLGQAEEHSNFFNEVPINSLLYGIAMGFGNTKPMDKSLKLVKAITENKDAIIIGRCANIIYKDSKDVTSVYLFADKEFRIKYLMERDGISEKEAEKYIKEVDEKRTSFHKYCTDTVWGDAKEYQLCLDTGKIGFEKTAELIMNYINAKKES	not soluble
MSLRVAIEGCTQGHGTLDAIYASVEESCKQRGWDGVDILIIGGDFQSVRNAEDLSIMSCPVKYRHLGDFPKYYSGERKAPYLTIFIAGNHEASSHLWELYYGGWVAPNIYYMGAANILRFGPLRIAGLSGIWKGFDYRKPHHERLPFSGGDVKSWYHVREIDVRKLLQVQTQVDVGLSHDWPRAVELHGDHEWLFRKKPDFRNESRDGTLGSVAAEYVMDRLRPPHWFSAHMHVKFAAIKTYSEAQPEEGHHHHHH	soluble
GPLHMKAVVPGPAEHPLQYNYTFWYSRRTPGRPTSSQSYEQNIKQIGTFASVEQFWRFYSHMVRPGDLTGHSDFHLFKEGIKPMWEDDANKNGGKWIIRLRKGLASRCWENLILAMLGEQFMVGEEICGAVVSVRFQEDIISIWNKTASDQATTARIRDTLRRVLNLPPNTIMEYKTHTDSIKMPGRLGPQRLLF	soluble
MGNLFCCVLVKQSDVAVKERFGKFQKVLNPGLQFVPWVIGDYVAGTLTLRLQQLDVQCETKTKDNVFVTVVASIQYRVLADKASDAFYRLSNPTTQIKAYVFDVIRACVPKLNLDDVFEQKNEIAKSVEEELDKAMTAYGYEILQTLIIDIEPDQQVKRAMNEINAAARMRVAASEKAEAEKIIQIKRAEGEAESKYLSGLGIARQRQAIVDGLRDSVLGFAGNVPGTSAKDVLDMVMMTQYFDTMRDIGATSKSSAVFIPHGPGAVSDVAAQIRNGLLQANNAS	soluble
MKQITIASRESKLALWQTNFVKNRIQLELNIPCEISTMKTQGDIILDQPLNKIGGKALFMKELEVAMLSNKADIAVHSLKDVPYQLPQGFCLAGFMPREDPRDAFVSNKYNSIDDLPKGAVVGTSSLRRKAQLLHYRDDLEIRDLRGNIQTRLSKLDNGDYDAIILASAGLIRLELVERITQFIPVEISLPAVGQGIVVIEALERDNDLLEKIQKLNCRESSRVATAERAFNQELKGGCHVAIGAYAELDNNQITLMAMVASSDGKKILKRKMIGDDPTKLGKLLAQEMIALGAYKILES	not soluble
MAHHHHHHMKNSQMERKKYSVHNLVKLINERNKQNVRNKQPAVGADGTTSINAAGDGLDGETHSNFFHVEKNGQVGRKDKAGFPAEDGEIGGEYDVRDGSVDEEDECDGEAVRDGEAAPDEERADCTDGADTTLPPGGGGEVKLFMFDYNECQNQKCSCKKLYRFKKIKKAPINKKFKGIVLTPFCEKFFSINDKATVENFGLSVIDCSWKSLDLLKKAKFANQRKLPYIIAVNSINYGKPYKLSCLESLAFCLYVCGYNKQCTDILNIYKWSSSFVNLNGELLDMYKLCNTHEEVKSVEDEFIHNSLSEKEKRKEIDQYRVIYEDGYL	soluble
MSLYKAVFSDFNGTLLTSQHTISPRTVVVIKRLTANGIPFVPISARSPLGILPYWKQLETNNVLVAFSGALILNQNLEPIYSVQIEPKDILEINTVLAEHPLLGVNYYTNNDCHARDVENKWVIYERSVTKIEIHPFDEVATRSPHKIQIIGEAEEIIEIEVLLKEKFPHLSICRSHANFLEVMHKSATKGSAVRFLEDYFGVQTNEVIAFGDNFNDLDMLEHVGLGVAMGNAPNEIKQAANVVTATNNEDGLALILEEKFPEEGHHHHHH	soluble
MEVYMKKLINDKNNIVEEVVQGMIKAFPNKVSRVENEPIIIRKNKKVNKVALISGGGSGHEPAHAGYVGYGMLDAAVCGEIFTSPGADKVYSAIKAVDAGKGVLLIIKNYSGDVMNFEMAGEMAQAEGITVKQVVVDDDIAVENSTYTVGRRGIAGTIFVHKILGAAAEKGYDLDKLVELGNKVVKNLKTMGMSLKPCTVFTTGKESFEIADDEVEIGLGIHGEPGTHREKMTTANEFTKKLFEKIYAESNVQNGDRFAVLVNGLGETTLIELFIINNHLQDLLKDKRIEVAKTLVGNYMTSLDMGGFSISLLKLDKEMEELLNAEEDTIAFLEHHHHHH	soluble
MGSDKIHHHHHHMFDVAARSGSFKQASQELGVTQSAVTRQIQTLEEQLEVRLFQRDNRVHSLTPVGLELAPQIEQIFEQLERTIERTRNLSDNTTTQLTVAISSERLRFWLAAKLADFHSLYPHIQLSFSRCNEYFINESAAEMASAIQHQSWDLAIGYGKVTDKHIQSIVLQKNQMLPVSAIKTNNSPFQLPWLINPENPDHQAMLKTYSQQLKSTRIIHCNDVQMSLDLSSAEQAVALIDSSLITPGLSNLKVYNDSAQPCQYPLSIYYRKRQRQPVALVAFIKWLQMIIS	not soluble
